T1: Zbed4 (mouse (cDNA from mouse retinal RNA), UniProt Q80WQ9 1-1168)
T1 sequence: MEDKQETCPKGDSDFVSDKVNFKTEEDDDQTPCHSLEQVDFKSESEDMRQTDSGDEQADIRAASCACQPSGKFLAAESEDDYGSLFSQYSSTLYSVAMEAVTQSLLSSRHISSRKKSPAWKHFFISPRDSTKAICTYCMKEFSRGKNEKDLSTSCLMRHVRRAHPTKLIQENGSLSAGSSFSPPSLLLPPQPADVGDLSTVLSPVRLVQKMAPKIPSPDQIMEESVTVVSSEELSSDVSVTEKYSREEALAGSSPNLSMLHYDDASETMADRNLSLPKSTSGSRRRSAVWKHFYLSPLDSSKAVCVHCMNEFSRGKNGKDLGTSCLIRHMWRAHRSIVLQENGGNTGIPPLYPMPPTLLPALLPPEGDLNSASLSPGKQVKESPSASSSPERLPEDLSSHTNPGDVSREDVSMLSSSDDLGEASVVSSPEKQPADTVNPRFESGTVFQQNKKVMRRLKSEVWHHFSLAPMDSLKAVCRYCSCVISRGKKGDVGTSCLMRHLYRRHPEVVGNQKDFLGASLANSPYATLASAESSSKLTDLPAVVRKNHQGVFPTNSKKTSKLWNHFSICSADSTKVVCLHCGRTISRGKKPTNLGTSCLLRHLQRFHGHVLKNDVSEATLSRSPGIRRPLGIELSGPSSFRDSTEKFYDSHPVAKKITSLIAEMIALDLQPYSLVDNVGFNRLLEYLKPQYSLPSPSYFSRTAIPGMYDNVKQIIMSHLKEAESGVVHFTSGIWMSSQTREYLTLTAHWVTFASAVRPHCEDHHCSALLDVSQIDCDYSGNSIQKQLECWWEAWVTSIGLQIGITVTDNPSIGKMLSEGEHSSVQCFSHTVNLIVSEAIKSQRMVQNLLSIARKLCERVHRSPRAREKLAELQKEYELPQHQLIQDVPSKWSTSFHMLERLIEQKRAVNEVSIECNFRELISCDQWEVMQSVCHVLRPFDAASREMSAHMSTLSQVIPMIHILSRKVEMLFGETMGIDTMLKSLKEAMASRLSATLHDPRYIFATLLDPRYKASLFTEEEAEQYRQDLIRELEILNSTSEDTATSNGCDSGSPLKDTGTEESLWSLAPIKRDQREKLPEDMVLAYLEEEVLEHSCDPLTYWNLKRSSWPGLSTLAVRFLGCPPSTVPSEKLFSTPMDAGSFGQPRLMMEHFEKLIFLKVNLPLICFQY


biological target: T1, Zbed4; assay: EMSA; 20 ug Zbed4, 0.5 nM oligo in 20 mM HEPES pH 7.5, 150 mM NaCl, 5 mM beta-mercaptoethanol, 5% glycerol, 0.5 mM ascorbic acid, 0.5 mM propyl gallate, 10 uM ZnSO4; conditions: protein: recombinant; tags: C-terminal His8

Binder | binding result
UUUUUGGGGGGGGGGUUUUU (ssRNA) [poly-ribo-G] | binds
AAAAAGGGGCGGGGCAAAAA (ssDNA) [GC-box1] | binds
TTTTTTTTTTTTTTTTTTT (ssDNA) [poly-T (called 20-mer, 19 T printed)] | no binding
UUUUUCCCCCCCCCCUUUUU (ssRNA) [poly-ribo-C] | no binding
AAAAAAAAAAAAAAAAAAAA (ssDNA) [poly-A (A20)] | no binding
AAAAATGGGCGGAATAAAAA (ssDNA) [GC-box2] | no binding
